{"source": "the supplement of paper PMC7125110", "parents": {"B1": {"name": "glmS ribozyme (parent)", "chain": "AUAAAAGCGCCAGAACUACAGAAAUGUAGUUGACGAGGAGGAGGUUUAUCGAAUUUUCGGCGGAUGCCUCCAAA"}}, "details_in_all_cases": "with glucosamine-6-phosphate", "key": {"glucosamine-6-phosphate [1]": {"variants_of": "B1", "assay": "self-cleavage kobs at 640 uM GlcN6P; higher = faster cleavage; RNA array", "method_in_brief": "(§1)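 Ribozyme variants carrying barcodes were transcribed in situ on sequenced MiSeq chips by E. coli RNA polymerase and tracked at 37 °C with a hybridised Cy3 probe. They were exposed to 40 μM to 10 mM glucosamine-6-phosphate in HEPES/KCl/Mg(OAc)2 buffer. kobs came from exponential decay fits of normalised per-tile medians, and kcat and KM from weighted Michaelis–Menten fits.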"}, "glucosamine-6-phosphate [2]": {"variants_of": "B1", "assay": "self-cleavage kobs at 2500 uM GlcN6P; higher = faster cleavage; RNA array", "method_in_brief": "as §1"}, "glucosamine-6-phosphate [3]": {"variants_of": "B1", "assay": "self-cleavage kobs at 10000 uM GlcN6P; higher = faster cleavage; RNA array", "method_in_brief": "as §1"}}, "note": "± gives the standard error. This sample holds only a part of the variants without activity.", "data": [{"variant": "G29C G40A G44U A64G", "values": [{"measurement": "self-cleavage kobs at 640 uM GlcN6P", "setting": "glucosamine-6-phosphate [1]", "value": "< 1e-05", "unit": "s⁻¹"}, {"measurement": "self-cleavage kobs at 2500 uM GlcN6P", "setting": "glucosamine-6-phosphate [2]", "value": "< 1e-05", "unit": "s⁻¹"}]}, {"variant": "C16U U49G", "values": [{"measurement": "self-cleavage kobs at 640 uM GlcN6P", "setting": "glucosamine-6-phosphate [1]", "value": "0.000174 ± 4.8e-05", "unit": "s⁻¹"}, {"measurement": "self-cleavage kobs at 2500 uM GlcN6P", "setting": "glucosamine-6-phosphate [2]", "value": "0.000685 ± 0.00023", "unit": "s⁻¹"}, {"measurement": "self-cleavage kobs at 10000 uM GlcN6P", "setting": "glucosamine-6-phosphate [3]", "value": "0.000387 ± 6.5e-05", "unit": "s⁻¹"}]}, {"variant": "A14U A36G G40A G41A U54A U57A C71U", "values": [{"measurement": "self-cleavage kobs at 640 uM GlcN6P", "setting": "glucosamine-6-phosphate [1]", "value": "< 1e-05", "unit": "s⁻¹"}]}, {"variant": "U30G U47A G60U", "values": [{"measurement": "self-cleavage kobs at 640 uM GlcN6P", "setting": "glucosamine-6-phosphate [1]", "value": "< 1e-05", "unit": "s⁻¹"}]}, {"variant": "G29A G40A A64G", "values": [{"measurement": "self-cleavage kobs at 640 uM GlcN6P", "setting": "glucosamine-6-phosphate [1]", "value": "5.47e-05 ± 1.8e-05", "unit": "s⁻¹"}, {"measurement": "self-cleavage kobs at 2500 uM GlcN6P", "setting": "glucosamine-6-phosphate [2]", "value": "0.000112 ± 2.1e-05", "unit": "s⁻¹"}]}, {"variant": "G29C U56A C71A", "values": [{"measurement": "self-cleavage kobs at 640 uM GlcN6P", "setting": "glucosamine-6-phosphate [1]", "value": "4.27e-05 ± 1.8e-05", "unit": "s⁻¹"}]}, {"variant": "G32A G40U A48U", "values": [{"measurement": "self-cleavage kobs at 640 uM GlcN6P", "setting": "glucosamine-6-phosphate [1]", "value": "< 1e-05", "unit": "s⁻¹"}]}, {"variant": "U31A G35C G38U A48U U49G G63C", "values": [{"measurement": "self-cleavage kobs at 640 uM GlcN6P", "setting": "glucosamine-6-phosphate [1]", "value": "< 1e-05", "unit": "s⁻¹"}, {"measurement": "self-cleavage kobs at 2500 uM GlcN6P", "setting": "glucosamine-6-phosphate [2]", "value": "< 1e-05", "unit": "s⁻¹"}]}, {"variant": "C16G U45C U54A C70U", "values": [{"measurement": "self-cleavage kobs at 640 uM GlcN6P", "setting": "glucosamine-6-phosphate [1]", "value": "6.18e-05 ± 2.7e-05", "unit": "s⁻¹"}]}, {"variant": "U31G G41A U46G", "values": [{"measurement": "self-cleavage kobs at 640 uM GlcN6P", "setting": "glucosamine-6-phosphate [1]", "value": "7.29e-05 ± 2.3e-05", "unit": "s⁻¹"}, {"measurement": "self-cleavage kobs at 2500 uM GlcN6P", "setting": "glucosamine-6-phosphate [2]", "value": "0.00021 ± 5.3e-05", "unit": "s⁻¹"}]}, {"variant": "U31C G41A A48U C67G", "values": [{"measurement": "self-cleavage kobs at 640 uM GlcN6P", "setting": "glucosamine-6-phosphate [1]", "value": "< 1e-05", "unit": "s⁻¹"}, {"measurement": "self-cleavage kobs at 2500 uM GlcN6P", "setting": "glucosamine-6-phosphate [2]", "value": "< 1e-05", "unit": "s⁻¹"}]}, {"variant": "G32C G35U A52G", "values": [{"measurement": "self-cleavage kobs at 640 uM GlcN6P", "setting": "glucosamine-6-phosphate [1]", "value": "< 1e-05", "unit": "s⁻¹"}, {"measurement": "self-cleavage kobs at 2500 uM GlcN6P", "setting": "glucosamine-6-phosphate [2]", "value": "< 1e-05", "unit": "s⁻¹"}]}, {"variant": "A15U U45C G66U C67G", "values": [{"measurement": "self-cleavage kobs at 640 uM GlcN6P", "setting": "glucosamine-6-phosphate [1]", "value": "7.69e-05 ± 2.9e-05", "unit": "s⁻¹"}, {"measurement": "self-cleavage kobs at 2500 uM GlcN6P", "setting": "glucosamine-6-phosphate [2]", "value": "0.000193 ± 5.8e-05", "unit": "s⁻¹"}]}, {"variant": "A15G U45C U57C", "values": [{"measurement": "self-cleavage kobs at 640 uM GlcN6P", "setting": "glucosamine-6-phosphate [1]", "value": "< 1e-05", "unit": "s⁻¹"}]}, {"variant": "C16U G32C G35A C68A", "values": [{"measurement": "self-cleavage kobs at 640 uM GlcN6P", "setting": "glucosamine-6-phosphate [1]", "value": "< 1e-05", "unit": "s⁻¹"}, {"measurement": "self-cleavage kobs at 2500 uM GlcN6P", "setting": "glucosamine-6-phosphate [2]", "value": "< 1e-05", "unit": "s⁻¹"}]}, {"variant": "G29A A33G U69A", "values": [{"measurement": "self-cleavage kobs at 640 uM GlcN6P", "setting": "glucosamine-6-phosphate [1]", "value": "5.13e-05 ± 2.3e-05", "unit": "s⁻¹"}, {"measurement": "self-cleavage kobs at 2500 uM GlcN6P", "setting": "glucosamine-6-phosphate [2]", "value": "4.9e-05 ± 1.9e-05", "unit": "s⁻¹"}]}, {"variant": "G29U G51A A64U U69G", "values": [{"measurement": "self-cleavage kobs at 640 uM GlcN6P", "setting": "glucosamine-6-phosphate [1]", "value": "0.000114 ± 3.7e-05", "unit": "s⁻¹"}, {"measurement": "self-cleavage kobs at 2500 uM GlcN6P", "setting": "glucosamine-6-phosphate [2]", "value": "0.000294 ± 9.7e-05", "unit": "s⁻¹"}]}, {"variant": "U17G G62U", "values": [{"measurement": "self-cleavage kobs at 640 uM GlcN6P", "setting": "glucosamine-6-phosphate [1]", "value": "< 1e-05", "unit": "s⁻¹"}]}, {"variant": "C16A U30G U45G G60A G66U", "values": [{"measurement": "self-cleavage kobs at 640 uM GlcN6P", "setting": "glucosamine-6-phosphate [1]", "value": "< 1e-05", "unit": "s⁻¹"}]}, {"variant": "U31G A36C U49G", "values": [{"measurement": "self-cleavage kobs at 640 uM GlcN6P", "setting": "glucosamine-6-phosphate [1]", "value": "8.9e-05 ± 1.7e-05", "unit": "s⁻¹"}, {"measurement": "self-cleavage kobs at 2500 uM GlcN6P", "setting": "glucosamine-6-phosphate [2]", "value": "0.000257 ± 4.5e-05", "unit": "s⁻¹"}, {"measurement": "self-cleavage kobs at 10000 uM GlcN6P", "setting": "glucosamine-6-phosphate [3]", "value": "0.000385 ± 6.8e-05", "unit": "s⁻¹"}]}, {"variant": "G29C A33U G35C A52U", "values": [{"measurement": "self-cleavage kobs at 640 uM GlcN6P", "setting": "glucosamine-6-phosphate [1]", "value": "< 1e-05", "unit": "s⁻¹"}, {"measurement": "self-cleavage kobs at 2500 uM GlcN6P", "setting": "glucosamine-6-phosphate [2]", "value": "< 1e-05", "unit": "s⁻¹"}]}, {"variant": "G29C A33G G40A U56C", "values": [{"measurement": "self-cleavage kobs at 640 uM GlcN6P", "setting": "glucosamine-6-phosphate [1]", "value": "< 1e-05", "unit": "s⁻¹"}]}, {"variant": "U31C C50G G59A C71G", "values": [{"measurement": "self-cleavage kobs at 640 uM GlcN6P", "setting": "glucosamine-6-phosphate [1]", "value": "7.63e-05 ± 1.9e-05", "unit": "s⁻¹"}]}, {"variant": "A14U C61A G66A", "values": [{"measurement": "self-cleavage kobs at 640 uM GlcN6P", "setting": "glucosamine-6-phosphate [1]", "value": "< 1e-05", "unit": "s⁻¹"}]}, {"variant": "U30G A33C G40C U54A A64C", "values": [{"measurement": "self-cleavage kobs at 640 uM GlcN6P", "setting": "glucosamine-6-phosphate [1]", "value": "< 1e-05", "unit": "s⁻¹"}, {"measurement": "self-cleavage kobs at 2500 uM GlcN6P", "setting": "glucosamine-6-phosphate [2]", "value": "< 1e-05", "unit": "s⁻¹"}]}, {"variant": "A14G G35U G37C U47C", "values": [{"measurement": "self-cleavage kobs at 640 uM GlcN6P", "setting": "glucosamine-6-phosphate [1]", "value": "< 1e-05", "unit": "s⁻¹"}]}, {"variant": "A15U A36G G41U U47A", "values": [{"measurement": "self-cleavage kobs at 640 uM GlcN6P", "setting": "glucosamine-6-phosphate [1]", "value": "< 1e-05", "unit": "s⁻¹"}]}, {"variant": "A15G C16A U30A A64G", "values": [{"measurement": "self-cleavage kobs at 640 uM GlcN6P", "setting": "glucosamine-6-phosphate [1]", "value": "0.000408 ± 0.00011", "unit": "s⁻¹"}, {"measurement": "self-cleavage kobs at 2500 uM GlcN6P", "setting": "glucosamine-6-phosphate [2]", "value": "0.00162 ± 0.00041", "unit": "s⁻¹"}]}, {"variant": "U30C C50G C61G", "values": [{"measurement": "self-cleavage kobs at 640 uM GlcN6P", "setting": "glucosamine-6-phosphate [1]", "value": "0.000327 ± 0.00012", "unit": "s⁻¹"}]}, {"variant": "G29C U31G A36U", "values": [{"measurement": "self-cleavage kobs at 640 uM GlcN6P", "setting": "glucosamine-6-phosphate [1]", "value": "< 1e-05", "unit": "s⁻¹"}]}, {"variant": "A15U A28C A33U", "values": [{"measurement": "self-cleavage kobs at 640 uM GlcN6P", "setting": "glucosamine-6-phosphate [1]", "value": "< 1e-05", "unit": "s⁻¹"}]}, {"variant": "U27G A28U U30G C68A", "values": [{"measurement": "self-cleavage kobs at 640 uM GlcN6P", "setting": "glucosamine-6-phosphate [1]", "value": "< 1e-05", "unit": "s⁻¹"}, {"measurement": "self-cleavage kobs at 2500 uM GlcN6P", "setting": "glucosamine-6-phosphate [2]", "value": "< 1e-05", "unit": "s⁻¹"}]}, {"variant": "U31C A39C G51C", "values": [{"measurement": "self-cleavage kobs at 640 uM GlcN6P", "setting": "glucosamine-6-phosphate [1]", "value": "< 1e-05", "unit": "s⁻¹"}]}, {"variant": "G32A G43A U57G", "values": [{"measurement": "self-cleavage kobs at 640 uM GlcN6P", "setting": "glucosamine-6-phosphate [1]", "value": "< 1e-05", "unit": "s⁻¹"}]}]}
